One block for each binder: values may come before it. No end group written: not given here.
B1: human WT lipocalin-type prostaglandin D synthase (L-PGDS) (natural protein)
chain: APEAQVSVQPNFQQDKFLGRWFSAGLASNSSWLREKKAALSMCKSVVAPATDGGLNLTSTFLRKNQCETRTMLLQPAGSLGSYSYRSPHWGSTYSVSVVETDYDQYALLYSQGSKGPGEDFRMATLYSRTQTPRAELKEKFTAFCKAQGFTEDTIVFLPQTDKCMTEQ
notes: Lipocalin-type prostaglandin D synthase (L-PGDS), human, wild type; 15N-labelled for the solution NMR; loaded with heme for the cryo-EM micrographs; unlabelled for ssNMR and ThT assays; also called WT L-PGDS; source: E. coli Rosetta 2 DE3 (pNIC-CH vector), purified (Superdex 75 in PBS)
B2: TGFBIp G623R peptide (residues 611-633 of the 4th FAS-1 domain), synthetic, as amyloid fibril (peptide)
peptide: EPVAEPDIMATNRVVHVITNVLQ
notes: Assayed as preformed amyloid fibril (many copies); also called G623R fibril; TGFBIp G623R fibril; source: synthetic peptide, bought: Synpeptide Co Ltd; fibrils formed in PBS at 37 °C, 180 rpm

What was measured:
[1] = target: B2; experiment: cell-based or functional assay
[2] = target: B2; experiment: cryo-EM micrographs; L-PGDS-heme complex (heme as contrast enhancer) mixed with G623R fibrils at 1:10; stoichiometry counted from the images; details: both partners purified
[3] = target: B1; experiment: NMR titration; 2D 1H-15N HSQC of 15N-labelled L-PGDS without and with G623R fibrils at a molar ratio of 1:4 (L-PGDS: fibrils), 600 MHz; details: both partners purified
[4] = target: the molecule itself; experiment: cryo-EM structure; G623R fibrils, Titan Krios 300 kV, helical reconstruction in RELION-3.1, map at 4.9 Å; model built with the ssNMR restraints
[5] = target: B1; experiment: solid-state NMR; unlabelled L-PGDS added to preformed 13C,15N-labelled G623R fibrils at 1:10; 1D 13C CP and 2D DARR (20 and 75 ms) compared with fibrils alone; details: both partners purified
[6] = target: the molecule itself; experiment: solid-state NMR; 13C,15N-labelled G623R fibrils packed in a 1.9 mm rotor; 18.8 T, MAS 17.857 kHz, 12 °C; NCA, NCO, DARR (20 and 75 ms), NCACX, NCOCX, CANCO; repeating unit calculated with CYANA
[7] = target: the molecule itself; experiment: solid-state NMR; 13C,15N-labelled A620D fibrils in a 1.9 mm rotor; 600 MHz, MAS 13333 Hz, 12 °C; NCA spectrum

Binder: B1
persistence length of G623R fibrils in cryo-EM micrographs without and with L-PGDS [1]: 4 fold
reduction of ThT intensity of preformed G623R fibrils after 24 h with L-PGDS at molar ratios of 1:2, 1:5 and 1:10 (52%, 27%, 19%) [1]: 52%
stoichiometry N [2]: 7 peptides per L-PGDS

Binder: B2
binding result [3]: binds
binding result [4]: binds

binding result [5]: binds
B3: TGFBIp G623R peptide (residues 611-633), recombinant, uniformly 13C,15N-labelled, as amyloid fibril (peptide)
peptide: EPVAEPDIMATNRVVHVITNVLQ
modifications: also: uniformly 13C,15N-labelled
notes: also called double-labeled G623R fibrils; 13C-15N labeled G623R fibril; source: E. coli BL21 (DE3), His-tag-BEAK-tag-TEV fusion, purified (Ni-NTA, TEV cleavage, reverse phase-HPLC); fibrils seeded with 5% (w/v) synthetic G623R seeds in 20 mM TRIS, 37 °C; not shown: His-tag, N-terminal, cleaved; BEAK tag, N-terminal, cleaved
binding result [6]: binds

B4: TGFBIp A620D peptide (residues 611-633), recombinant, uniformly 13C,15N-labelled, as amyloid fibril (peptide, UniProt Q15582 611-633, looked up)
peptide: EPVAEPDIMDTNGVVHVITNVLQ
modifications: also: uniformly 13C,15N-labelled
notes: also called A620D fibrils; source: E. coli BL21 (DE3), His-tag-BEAK-tag-TEV fusion, purified (Ni-NTA, TEV cleavage, reverse phase-HPLC); not shown: His-tag, N-terminal, cleaved; BEAK tag, N-terminal, cleaved
binding result [7]: binds

— article PMC10063603, “Release of frustration drives corneal amyloid disaggregation by brain chaperone” (Communications Biology, 2023)
